Data as given in patent US20120171209A1 (Ablynx, published 2012).

T1: human soluble IL-6R, recombinant (human, UniProt P08887 20-358)
T1 construct: also called human IL6-R; bio-IL-6R
T1 sequence (looked up): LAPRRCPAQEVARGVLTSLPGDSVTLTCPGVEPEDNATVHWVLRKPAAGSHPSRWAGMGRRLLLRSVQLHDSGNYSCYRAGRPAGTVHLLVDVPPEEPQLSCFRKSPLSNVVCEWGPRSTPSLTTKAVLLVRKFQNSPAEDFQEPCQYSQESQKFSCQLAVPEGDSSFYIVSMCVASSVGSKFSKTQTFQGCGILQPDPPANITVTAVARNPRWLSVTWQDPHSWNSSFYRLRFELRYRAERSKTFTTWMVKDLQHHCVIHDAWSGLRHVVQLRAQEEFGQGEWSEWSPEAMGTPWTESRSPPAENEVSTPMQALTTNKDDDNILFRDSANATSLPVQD


What was measured:
[1] = molecular target: T1, human soluble IL-6R, recombinant; assay: Biacore, periplasmic extract
Description: Periplasmic extracts of representative family clones were also analyzed on Biacore. Dissociation curves were used to calculate koff rates. koff rates are depicted in Table C-6.

[2] = molecular target: cynomolgus IL-6R used in Biacore (cynomolgus monkey); assay: Biacore, periplasmic extract
[3] = molecular target: IL-6R on the surface of TF-1 cells (UniProt P08887); assay: cell-based or functional assay
IL-6R on the surface of TF-1 cells, sequence (P08887 20-468 limits assumed): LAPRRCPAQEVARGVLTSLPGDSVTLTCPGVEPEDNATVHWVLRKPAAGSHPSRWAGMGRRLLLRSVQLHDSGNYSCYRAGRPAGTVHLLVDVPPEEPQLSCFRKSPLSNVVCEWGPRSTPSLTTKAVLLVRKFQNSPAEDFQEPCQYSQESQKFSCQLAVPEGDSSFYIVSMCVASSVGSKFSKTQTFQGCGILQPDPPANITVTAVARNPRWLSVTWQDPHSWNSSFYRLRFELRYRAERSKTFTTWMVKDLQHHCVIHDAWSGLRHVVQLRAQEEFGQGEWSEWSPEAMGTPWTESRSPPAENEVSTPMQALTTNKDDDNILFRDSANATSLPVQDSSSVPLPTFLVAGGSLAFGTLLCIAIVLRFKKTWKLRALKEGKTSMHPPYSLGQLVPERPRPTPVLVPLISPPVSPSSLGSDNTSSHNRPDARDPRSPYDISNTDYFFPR

koff [2]	koff [1]	Binder	other results
		IL6RPMP103C3 (VHH, family 14; periplasmic extract) VHH: EVQLVESGGGLVQPGGSMRLSCAATGAIFSISTMGWYRQAPGAQREFVAGVGLDGTPNYADSVKGRFTISRDNTKNTVSLQMENLKPEDTGVYYCNIDEGMDYDGNFYDRWGQGTQVTVSS	binding result [1]: no binding
		IL6RPMP108E9 (VHH, family 15; periplasmic extract) VHH: EVQLVESGGGLVQAGGSLRLSCAFSRRSFGNFPMGWFRQRPGEEREYVAVISWNNNYIHYRDSVKGRFTASRDTSENRMYLQMNGLKPEDTAVYYCAARTKDNTLFTPAEEYDYWGQGTQVTVSS	binding result [1]: no binding
0.001 s⁻¹		IL6RPMP103A2 (VHH) VHH: EVQLVESGGGLVQPGGSLRLSCAASGSIFSINTMGWYRQVPGKQRELVATVRSGSITNYADSVQDQFTITRDIDENTVYLQMNSLKPEDTAVYYCLTRASVPGRGYQDYWGQGTQVTVSS	
0.00045 s⁻¹		IL6RPMP103A4 (VHH) VHH: EVQLVESGGGLVQPGGSLRLSCAASGSIFSINTMGWYRQVPGKQRELVATVRSGSITNYADSVQDRFTITRDIDENTVYLQMNSLKPEDTAVYYCLTRASVPGRGYQDYWGQGTQVTVSS	
		IL6RPMP120G6 (VHH) VHH: EVQLVESGGDLVQTGGSLRLSCAASGITVSDRAMGWYRQAPGKQREMVAGVSRGGMTSYADSVKGRLTISRDNAKNSVYLQMNSLNPEDTAVYYCSAYYRYGSSVPQYWGQGTQVTVSS	IC50, IL-6-dependent proliferation of TF-1 cells [3]: 10.2 nM
0.00074 s⁻¹		IL6RPMP100D11 (VHH) VHH: EVQLVESGGGLVQAGDSLRLSCLASGRSFKDDAMGWFRQAPGKEREFVSGIDWRGNIVDAESVKGRFTISRENAKNTLYLQMNHLKPEDTAVYYCAASSVFSDLRYRKNPKYWGQGTQVTVSS	
		IL6RPMP108C9 (VHH, family 16; periplasmic extract) VHH: EVQLVESGGGLVQAGGSLRLSCAASGRTYAMAWFRQAPGKEREFVAAISIVTDYADSVKGRFNISRDNRENTVYLQMNSLKPEDTAVYYCAANTYYSGAYFPRGHEWYEYWGQGTQVTVSS	binding result [1]: no binding
	0.01 s⁻¹	IL6RPMP106B2 (VHH, family 6; periplasmic extract) VHH: EVQLVESGGGLVQAGGSLRLSCAASGSIFRINAMGWYRQAPGKQRELVAAAISGGSTNYADFVKGRFTISRDNAKNTVYLQMNSLKPEDTAVYYCNALVVSHNYSDYVPFPDDYWGQGTQVTVSS	
	0.01 s⁻¹	IL6RPMP105C2 (VHH, family 6; periplasmic extract) VHH: EVQLVESGGGLVQAGGSLRLSCAASGSIFRINAMGWYRQAPGEQRELVAAAISGGSTNYADFVKGRFTISRDNAKNTVYLQMNSLKPEDTAVYYCNALVVSHNYSDYVPFPDDYWGQGTQVTVSS	
	0.01 s⁻¹	IL6RPMP106F7 (VHH, family 6; periplasmic extract) VHH: EVQLVESEGGLVQAGGSLRLSCAASGSIFRINAMGWYRQAPGKQRELVAAAISGGSTNYADFVKGRFTISRDNAKNTVYLQMNSLKPEDTAVYYCNALVVSHNYSDYVPFPDDYWGQGTQVTVSS	
	0.01 s⁻¹	IL6RPMP105D3 (VHH, family 6; periplasmic extract) VHH: EVQLEESGGGLVQAGGSLRLSCAASGSIFRINAMGWYRQAPGKQRELVAAAISGGSTNYADFVKGRFTISRDNAKNTVYLQMNSLKPEDTAVYYCNALVVSHNYSDYVPFPDDYWGQGTQVTVSS	
		IL6RPMP103F2 (VHH, family 26; periplasmic extract) VHH: EVQLVESGGGLVQAGGSLRLSCVASGHTSDTYIMAWFRQAPGKEREFVASILWDGSITYYADSVKDRFTISRDISRKTLYLQMNSLRPEDTATYTCARGIYFSRRYVDPGIYGTWGQGTQVTVSS	binding result [1]: no binding
0.00045 s⁻¹	0.00027 s⁻¹	IL6RPMP100G11 (VHH, family 4; also called IL6R100G11) VHH: EVQLVESGGGLVQAGGSLRLSCAASGRGFSPYTMGWFRQAPGKERVFVAGISWSTGIAHYTDSVKGRFTISRDNAKNTGSLQMNSLKPEDTAVYYCAVVQTTKGNYDYWGQGTQVTVSS	IC50, IL-6-dependent proliferation of TF-1 cells [3]: 116 nM
0.00045 s⁻¹	0.00027 s⁻¹	IL6RPMP101A5 (VHH, family 5; periplasmic extract) VHH: EVQLVESGGGLVQAGGSLRLSCTASGRTFSDYDMGWFRQAPGKERECVAIIDTNGDNTLIVGSVKGRFAISSDNAKNTVYLQMNSLLPEDTAVYTCAAGVWSSLRHTAANYWGQGTQVTVSS	
0.00074 s⁻¹		IL6RPMP108F7 (VHH) VHH: EVQLVESGGGLVQAGGSLRLSCTASGRTFSDYDMGWFRQAPGKERECVAVIDTNGDNTLTVGSVKGRFAISRDNAKNTVYLQMNSLLPEDTAVYTCAAGAWSSLRSTAANYWGQGTQVTVSS	
0.00079 s⁻¹		IL6RPMP108D1 (VHH) VHH: EVQLVESGGGLVQAGGSLRLSCTASGRTFSDYDMGWFRQAPGKERECVAVIDTNGDNTLTVGSVKGRFAISRDNAKNTVYLQMNSLLPEDTAVYTCAAGAWSSLRSTAANYWGQGTKVTVSS	
0.0009 s⁻¹		IL6RPMP108D10 (VHH) VHH: EVQLVESGGGSVQAGGSLRLSCTASGRTFSDYDMGWFRQAPGKERECVAVIDTNGDNTLTVGSVKGRFAISRDNAKNTVYLQMNSLLPEDTAVYTCAAGAWSSLRSTAANYWGQGTQVTVSS	
0.00071 s⁻¹		IL6RPMP108C10 (VHH) VHH: EVQLVESGGGLVQPGGSLRLSCTASGRTFSDYDMGWFRQAPGKERECVAVIDTNGDNTLTVGSVKGRFAISRDNAKNTVYLQMNSLLPEDTAVYTCAAGAWSSLRSTAANYWGQGTQVTVSS	
0.00074 s⁻¹	0.00023 s⁻¹	IL6RPMP104B9 (VHH, family 5; periplasmic extract) VHH: EVQLVESGGGLVQAGGSLRLSCTASGRTFSDYDMGWFRQAPGKERECVAIIDTNGDNTLIVGSVKGRFAISSDNAKNTVYLQMNSLLPEDTAVYTCAAGVWSSLRHTAANYWGQGTQVTVSS	
	0.001 s⁻¹	IL6RPMP104E7 (VHH, family 18; periplasmic extract; also called PMP104E07) VHH: EVQLVESGGGLVQAGGSLRLSCAAGGSIFSINAMGWYRQAPGKQRELVASITSGGSTTYADSVKGRFTISRDNAKDTVYLQMNSLKPEDTAVYYCNAHIRFPFPNDYWGQGTQVTVSS	
0.00074 s⁻¹		IL6RPMP103A5 (VHH) VHH: EVQLVESGGGLVQAGDSLRLSCVASGLPFSTLHMGWFRQAPGKEHESVSAISSDGGSEYYAGSVKGRFTISRDNAKNTVYLQMNSLKPEDTAVYYCAADPRRIGANIKYSDYWGQGTQVTVSS	
0.00045 s⁻¹		IL6RPMP103B2 (VHH) VHH: EVQLVESGGGLVQPGGSLRLSCAASGSTFSINMMAWYCQAPGKQRELVASISSGGGINYADSVKGRFTISRDYAENSVDLQMNSLKPEDTAVYYCNARGTYLNGDHYSTNYNSWGQGTQVTVSS	
	0.01 s⁻¹	IL6RPMP107E4 (VHH, periplasmic extract) VHH: EVQLVESGGGLVQAGGSLRLSCAASGSIDRINAMGWYRQAPGKQRDFLAVITDGDKTLYADSVKGRFTISNDNAKNTVYLQMNSLKPEDTAVYYCNAYQAGWGDYWGQGTQVTVSS	
	0.001 s⁻¹	IL6RPMP106D6 (VHH, family 22; periplasmic extract; also called PMP106D06) VHH: EVQLVESGGGLVQAGGSLRLSCAASGFTFDDYAIGWFRQAPGKEREGVSCMISSDGSTYYADSVKGRFTISSDNAKNTVYLQMDSLKPEDTAVYYCAADLSLYGCYVGDRDLYDYDYWGQGTQVTVSS	
	0.00042 s⁻¹	IL6RPMP101G11 (VHH, family 2; periplasmic extract) VHH: EVQLVESGGGLVQPGGSLRLSCAASASGFTLDYYAIGWFRQAPGKEREGVSCISSTDGSTYYADSVKGRFTISRDNAKNTVYLQMNSLNPEDTGVYTCAAVLTTAQAMGVPTRSYEYDYWGQGTQVTVSS	
0.001 s⁻¹	0.00058 s⁻¹	IL6RPMP101B6 (VHH, family 7; periplasmic extract) VHH: EVQLVESGGGLVQAGGSLRLSCAASGSDFSIKAMGWYRQAPGKQRELVARITSGGSTVYADSVKGRFTISRDNAKNTVYLQMNSLKPEDATVYYCNAIVTYSDYDLGNDYWGQGTQVTVSS	
0.01 s⁻¹	0.01 s⁻¹	IL6RPMP104B8 (VHH, family 3; also called PMP104B08; IL6R104B8) VHH: EVQLVESGGGLVQAGGSLRLSCAASGFAFDDYAIGWFRQAPGKEREGVSSISSSNGNTYYADSVRGRFTISSDNAKNTVYLQMNSLKPEDTGVYYCAAIWGIFFNEKMPVGAYDYWGQGTQVTVSS	IC50, IL-6-dependent proliferation of TF-1 cells [3]: 245 nM
0.01 s⁻¹	0.01 s⁻¹	IL6RPMP105B8 (VHH, family 3; periplasmic extract) VHH: EVQLVESGGGLVRAGGSLRLSCAASGFAFDDYAIGWFRQAPGKEREGVSSISSSNGNTYYADSVRGRFTISSDNAKNTVYLQMNSLKPEDTGVYYCAAIWGIFFNEKMPVGAYDYWGQGTQVTVSS	
0.01 s⁻¹	0.01 s⁻¹	IL6RPMP105H10 (VHH, family 3; periplasmic extract) VHH: EVQMVESGGGLVQAGGSLRLSCAASGFAFDDYAIGWFRQAPGKEREGVSSISSSNGNTYYADSVRGRFTISSDNAKNTVYLQMNSLKPEDAGVYYCAAIWGIFFNEKMPVGAYDYWGQGTQVTVSS	
0.01 s⁻¹	0.01 s⁻¹	IL6RPMP107B4 (VHH, family 17; periplasmic extract; also called PMP107B04) VHH: EVQLVESGGGLVQAGGSLRLSCVASGLRLNMHRMGWFRQAPGKEREFVARIFTDDGDSYYADSVQGRFTISGDNAKNTVYLQMNSLKPEDTGVYFCAAGYMSGAESPIGYDNWGQGTQVTVSS	
